This note sets out measurements from IntAct's records for PubMed 19914239.

B1: Folliculin (Rattus norvegicus (Rat)), Q76JQ2 (parent)
chain: MNAIVALCHFCELHGPRTLFCTEVLHAPLPQGAGSGDSPGQVEQAEEEEGGIQMSSRVRAHSPAEGASTDSSSPGPKKSDMCEGCRSLAVGHPGYISHDKETSIKYVSHQHPNHPQLFSIVRQACVRSLSCEVCPGREGPIFFGDEQHGFVFSHTFFIKDSLARGFQRWYSIIAIMMDRIYLINSWPFLLGKIRGIISELQGKALKVFEAEQFGCPQRAQRMNTAFTPFLHQRNGNAARSLTSLTSDDNLWACLHTSFAWLLKACGSRLTEKLLEGAPTEDTLVQMEKLADLEEESESWDNSEAEEEEKAPATAEGAEGRELASCPTESSFLSACGSWQPPKLSVFKSLRHMRQVLGAPSFRMLAWHVLMGNQVIWKSRDVNLVHSAFEVLRTMLPVGCVRIIPYSSQYEEAYRCNFLGLSPPVPIPAHVLASEFVVVVEVHTATRSNPHPAGCEDDQSLSKYEFVVTSGSPVAADRVGPTILNKMEAALTNQNLSVDVVDQCLVCLKEEWMNKVKVLFKFTKVDSRPKEDTQKLLSVLGASEEDNVKLLKFWMTGLSKTYKSHLMSTVRSPTAAESRN

One test covers variants of B1. Conditions: with aapk1_rat Prkaa1, P54645.
Chain of aapk1_rat Prkaa1, P54645 (P54645 whole entry): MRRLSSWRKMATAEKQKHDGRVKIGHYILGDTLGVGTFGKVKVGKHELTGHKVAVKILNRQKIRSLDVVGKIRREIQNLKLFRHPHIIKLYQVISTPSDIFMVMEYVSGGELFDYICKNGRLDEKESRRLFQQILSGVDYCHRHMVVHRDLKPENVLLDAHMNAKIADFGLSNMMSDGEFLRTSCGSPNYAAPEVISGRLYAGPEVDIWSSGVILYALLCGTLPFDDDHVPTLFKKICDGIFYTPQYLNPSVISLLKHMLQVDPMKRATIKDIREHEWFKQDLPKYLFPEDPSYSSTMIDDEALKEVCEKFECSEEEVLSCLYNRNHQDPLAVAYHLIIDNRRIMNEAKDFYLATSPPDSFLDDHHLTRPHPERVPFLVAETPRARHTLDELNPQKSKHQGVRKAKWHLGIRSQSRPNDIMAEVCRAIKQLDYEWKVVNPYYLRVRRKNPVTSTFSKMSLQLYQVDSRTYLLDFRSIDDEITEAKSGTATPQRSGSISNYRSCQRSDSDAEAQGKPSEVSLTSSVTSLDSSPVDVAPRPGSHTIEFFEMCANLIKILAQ
Consider S62D, for which the “effect of a mutation on the interaction” value is on record as “increasing interaction”.

In a further test the parent is B1. Conditions: with aapk1_rat Prkaa1, P54645. This is another data set of the same source.
S62A: the “effect of a mutation on the interaction” value is given as “decreasing interaction”.
